Legend:
[1] = biological target: T1, recombinant human Her2 ECD (Human Her2/ErbB2 protein, catalog #10004-HCCH, Sino Biological Inc.) (human, UniProt P04626 23-652); experiment: SPR (Biacore), conditions of Example 1, human Her2 ECD immobilized on CM5 chip
T1 construct: extracellular domain; also called HER2 antigen; HER2 target

[2] = biological target: T1, recombinant human Her2 ECD (Human …); experiment: SPR (Biacore), conditions of Example 1, HER2 ECD immobilized on CM5 chip
[3] = biological target: T1, recombinant human Her2 ECD (Human …); experiment: SPR (Biacore T200), HER2 ECD immobilised on CM5, anti-HER2/CD3 TDB as analyte

B1: 4D5v3-40G5 anti-HER2/CD3 TDB (bispecific antibody, V domains shown)
VH 1: not shown
VL 1: not shown
VH 2: EVQLVQSGAEVKKPGASVKVSCKASGYTFTNYYIHWVRQAPGQGLEWIGWIYPGDGNTKYNEKFKGRATLTADTSTSTAYLELSSLRSEDTAVYYCARDSYSNYYFDYWGQGTLVTVSS
VL 2: DIVMTQSPDSLAVSLGERATINCKSSQSLLNSRTRKNYLAWYQQKPGQPPKLLIYWASTRESGVPDRFSGSGSGTDFTLTISSLQAEDVAVYYCTQSFILRTFGQGTKVEIK
notes: also called HER2 TDB
- Kd [1]: 0.04 nM
- Kd [2]: 0.06 nM
- fold affinity relative to wildtype 4D5 TDB [3]: ~10 fold
